The target of test [1] is T1, proteasome subunit α2 (PSMA2) (Homo sapiens (Human), UniProt P25787).
T1 chain: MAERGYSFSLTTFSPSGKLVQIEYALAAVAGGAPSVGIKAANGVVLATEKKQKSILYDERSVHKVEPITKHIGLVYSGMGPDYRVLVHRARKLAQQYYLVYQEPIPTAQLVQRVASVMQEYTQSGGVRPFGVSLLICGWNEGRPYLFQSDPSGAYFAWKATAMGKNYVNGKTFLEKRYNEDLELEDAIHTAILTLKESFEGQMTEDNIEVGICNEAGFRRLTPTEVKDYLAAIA
As to the kind of experiment: cryo-EM structure of co-purified complex; contact seen only within the assembled multi-subunit intermediate (complete α-ring, POMP, β2); pair not tested in isolation.

Test [2] deals with T2, proteasome subunit α4 (PSMA7) (Homo sapiens (Human), UniProt O14818).
T2 chain: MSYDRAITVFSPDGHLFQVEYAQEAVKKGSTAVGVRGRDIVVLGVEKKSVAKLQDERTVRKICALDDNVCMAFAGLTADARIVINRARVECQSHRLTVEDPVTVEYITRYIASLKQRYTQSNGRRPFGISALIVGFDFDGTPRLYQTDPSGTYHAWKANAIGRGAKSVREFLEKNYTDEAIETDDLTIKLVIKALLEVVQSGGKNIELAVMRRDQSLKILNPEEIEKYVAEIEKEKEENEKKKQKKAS
The test is described as above.

Test [3] addresses T3, proteasome subunit α7 (PSMA3) (Homo sapiens (Human), UniProt P25788).
T3 chain: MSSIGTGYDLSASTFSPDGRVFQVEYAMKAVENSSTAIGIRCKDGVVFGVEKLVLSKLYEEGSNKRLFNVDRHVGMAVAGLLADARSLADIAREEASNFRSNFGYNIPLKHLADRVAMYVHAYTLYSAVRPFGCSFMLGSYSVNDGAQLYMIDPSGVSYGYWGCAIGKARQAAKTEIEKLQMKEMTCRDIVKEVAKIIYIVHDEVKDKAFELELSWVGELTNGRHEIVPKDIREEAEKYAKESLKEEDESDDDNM
Description: cryo-EM structure of co-purified complex; contact seen only within the assembled multi-subunit intermediate (PAC2 C-terminus in α6-α7 pocket); pair not tested in isolation.

In test [4] the target is T4, proteasome subunit α5 (PSMA5) (Homo sapiens (Human), UniProt P28066).
T4 chain: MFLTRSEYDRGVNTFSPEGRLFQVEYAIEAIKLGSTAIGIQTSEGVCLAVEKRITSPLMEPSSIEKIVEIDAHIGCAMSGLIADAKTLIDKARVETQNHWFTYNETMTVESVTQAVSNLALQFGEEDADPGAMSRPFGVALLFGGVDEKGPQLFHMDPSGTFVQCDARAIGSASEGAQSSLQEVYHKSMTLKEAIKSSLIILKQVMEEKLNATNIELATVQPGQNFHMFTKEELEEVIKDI
As to the kind of experiment: cryo-EM structure of co-purified complex; contact seen within the assembled multi-subunit intermediate (complete α-ring, POMP, β2); isolated pair only cited from earlier work.

Test [5] has as its target proteasome subunit α6 (PSMA1) (Homo sapiens (Human), UniProt P25786). As to the kind of experiment: cryo-EM structure of co-purified complex; contact seen only within the assembled multi-subunit intermediate (HbYX motifs in α5-α6 and α6-α7 pockets); pair not tested in isolation.
The target of test [6] is T5, proteasome subunit α3 (PSMA4) (Homo sapiens (Human), UniProt P25789).
T5 chain: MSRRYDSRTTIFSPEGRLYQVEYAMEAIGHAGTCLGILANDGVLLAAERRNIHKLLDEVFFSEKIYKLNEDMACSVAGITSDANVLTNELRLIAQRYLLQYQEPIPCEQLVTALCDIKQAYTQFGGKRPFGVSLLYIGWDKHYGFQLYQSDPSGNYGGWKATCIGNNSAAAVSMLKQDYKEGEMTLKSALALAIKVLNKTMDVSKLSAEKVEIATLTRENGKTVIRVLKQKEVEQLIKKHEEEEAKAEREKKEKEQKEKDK
As to the kind of experiment: cryo-EM structure of co-purified complex; contact seen within the assembled multi-subunit intermediate; isolated pair only cited from earlier yeast two-hybrid.

For test [7], the target named is T5, proteasome subunit α3 (PSMA4). Description: cryo-EM structure of co-purified complex; contact seen only within structure 1 (complete α-ring, PAC1/PAC2, POMP, β2); pair not tested in isolation.

Chain of proteasome subunit α6 (PSMA1) (P25786 whole entry): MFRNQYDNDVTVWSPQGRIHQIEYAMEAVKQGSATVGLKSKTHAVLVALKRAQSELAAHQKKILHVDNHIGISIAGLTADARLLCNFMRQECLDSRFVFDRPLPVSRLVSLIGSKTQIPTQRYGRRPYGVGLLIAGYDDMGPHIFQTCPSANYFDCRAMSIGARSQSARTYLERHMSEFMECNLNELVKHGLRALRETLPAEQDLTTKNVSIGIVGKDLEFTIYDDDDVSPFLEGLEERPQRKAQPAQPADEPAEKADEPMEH

B1: PAC1–PAC2 heterodimer (protein)
chain 1: MAATFFGEVVKAPCRAGTEDEEEEEEGRRETPEDREVRLQLARKREVRLLRRQTKTSLEVSLLEKYPCSKFIIAIGNNAVAFLSSFVMNSGVWEEVGCAKLWNEWCRTTDTTHLSSTEAFCVFYHLKSNPSVFLCQCSCYVAEDQQYQWLEKVFGSCPRKNMQITILTCRHVTDYKTSESTGSLPSPFLRALKTQNFKDSACCPLLEQPNIVHDLPAAVLSYCQVWKIPAILYLCYTDVMKLDLITVEAFKPILSTRSLKGLVKNIPQSTEILKKLMTTNEIQSNIYT
chain 2: MFVPCGESAPDLAGFTLLMPAVSVGNVGQLAMDLIISTLNMSKIGYFYTDCLVPMVGNNPYATTEGNSTELSINAEVYSLPSRKLVALQLRSIFIKYKSKPFCEKLLSWVKSSGCARVIVLSSSHSYQRNDLQLRSTPFRYLLTPSMQKSVQNKIKSLNWEEMEKSRCIPEIDDSEFCIRIPGGGITKTLYDESCSKEIQMAVLLKFVSEGDNIPDALGLVEYLNEWLQILKPLSDDPTVSASRWKIPSSWRLLFGSGLPPALF
For B1, the binding result in test [1], in test [2], in test [3], in test [4] and in test [5] was “binds” throughout.

B2: proteasome maturation protein (POMP) (protein)
chain: MNARGLGSELKDSIPVTELSASGPFESHDLLRKGFSCVKNELLPSHPLELSEKNFQLNQDKMNFSTLRNIQGLFAPLKLQMEFKAVQQVQRLPFLSSSNLSLDVLRGNDETIGFEDILNDPSQSEVMGEPHLMVEYKLGLL
Take B2: the binding result in test [6] is listed as “binds”.

B3: PAC3–PAC4 heterodimer (protein)
chain 1: MEDTPLVISKQKTEVVCGVPTQVVCTAFSSHILVVVTQFGKMGTLVSLEPSSVASDVSKPVLTTKVLLGQDEPLIHVFAKNLVAFVSQEAGNRAVLLAVAVKDKSMEGLKALREVIRVCQVW
chain 2: MEGLVVAAGGDVSLHNFSARLWEQLVHFHVMRLTDSLFLWVGATPHLRNLAVAMCSRYDSIPVSTSLLGDTSDTTSTGLAQRLARKTNKQVFVSYNLQNTDSNFALLVENRIKEEMEAFPEKF
On to B3, for which the binding result in test [7] is “binds”.

For the origin of these results see PMC11327110 (2024).
